Among the data in publication PMC12221289, “Armless hairpin-like tRNAs in Romanomermis culicivorax: Evolutionary adaptation of a mitochondrial elongation factor EF-Tu” are Kd values, retold here.

Common to all, as to assay: DRaCALA; GTP; DRaCALA of EF-Tu:GTP:Phe-tRNA ternary complexes, 2 ul spotted on nitrocellulose, n>=3; binding buffer, pH and temperature not in the material
In data set [1] the target is Bta mt-EF-Tu D384K (Bos taurus, UniProt P49410 44-452, D384K).
Data set [2] concerns the target Bta mt-EF-Tu D384A (Bos taurus, UniProt P49410 44-452, D384A).
The target in data set [3] is Bta mt-EF-Tu (Bos taurus, UniProt P49410 44-452).

B1: Phe-tRNAPhe (canonical) (structured_RNA)
RNA: GCGGAUUUAGCUCAGUUGGGAGAGCGCCAGACUGAAGAUCUGGAGGUCCUGUGUUCGAUCCACAGAAUUCGCACCA
modifications: 3'-aminoacylated with Phe (flexizyme)
As for B1, the Kd in data set [1] turned out to be 76.6 nM; in data set [2] it was 11.5 nM; in data set [3] it was 5.8 nM.

As usually defined, the Kd is a measure of binding affinity in units of concentration. Low values mean a tighter complex, high ones a looser complex.
